Results on one molecule are retold here after patent CN106565845A.

Experiment [1] addresses 重组人uPAR蛋白 (recombinant human uPAR protein, uPAR-ECD) (human) (UniProt Q03405). Kind of experiment: ELISA, plate coated with uPAR-ECD (2 ng/μl), antibody at 0.0625 μg/ml, goat anti-human IgG-HRP.
In experiment [2] the target is human uPAR on SW480 cells (人结肠癌细胞) (human) (UniProt Q03405). Kind of experiment: flow cytometry on SW480 cells, antibody at 5 μg/ml, FITC goat anti-human IgG.
The target in experiment [3] is 重组人uPAR蛋白 (recombinant human uPAR protein, uPAR-ECD) (human) (UniProt Q03405). Kind of experiment: ELISA, plate coated with uPAR-ECD (2 ng/μl), antibody at 0.125 μg/ml, goat anti-human IgG-HRP.

B1: H5L5抗体 (humanized anti-uPAR antibody H5L5) (antibody, human IgG1, kappa, V domains shown)
VH: EVQLVQSGAEVKKPGATVKISCKASGYTFSDFYIHWVRQAPGKGLEWMGWIFHGSDNTEYNEKFRGRVTITADTSTDTGYLELSSLRSEDTAVYYCARWGPHWYFDVWGQGTLVSVSS
VL: MIQMTQSPSSVSASVGDRVTITCRASQDVSYMAWYQQKPGKAPKPWIFEISTLQSGVPSRFSGSGSGTDYSLTINSLQPEDFATYYCQQWNYPFTFGGGTKVEIKR
For B1, the OD450 in experiment [1] came out at 1.42 OD450. In experiment [2], the 平均荧光强度 (MFI) was found to be 3.17 and the 阳性率 (percent positive cells) was 99.2%. Moreover, the OD450 in experiment [3] worked out at 1.86 OD450.
